In this experiment the target is ZIKV sE (strain PF13) (Zika virus, strain PF13). Nature of the experiment: SEC-MALS.

In publication doi:10.1101/2022.12.06.519383 one finds stoichiometry N data, which are given here for one substance.

On to “ZIKV sE (strain PF13) (domain or fragment)”, for which the stoichiometry N amounted to 2.
